Results published in patent publication US20220411504A1 (Janssen / Centocor, published 2022).
Residue numbers refer to the chain shown, from its start.

B1: MHGB694 v-region as scFv (E. coli supernatant) (scFv, V domains shown)
VH: EVQLLESGGGLVQPGGSLRLSCAASGFTFSSYAMHWVRQAPGKGLDWVSGISGSGFSTYYVDSVKGRFTISRDNSKHTLYLQMNSLRAEDTAVYYCAKDNLVAGTVFDYWGQGTLVTVSS
VL: not shown
notes: One scFv chain
B2: MHGB737 v-region as scFv (E. coli supernatant) (scFv, V domains shown)
VH: B1 VH with D46E, H77N
VL: not shown
notes: One scFv chain; also called MHGB737 (GL optimized B694)
B3: MHGB665 v-region as scFv (E. coli supernatant) (scFv, V domains shown)
VH: QVQLQQSGPGLVKPSQTLSLTCAISGDSVSSNSAAWNWIRQSPSRGLEWLGRTYYRSKWYNDYAVSVKSRITINPDTSKNQISLQLNSVTPEDTAVYYCAGDRRYGIVGLPFAYWGQGTLVTVSS
VL: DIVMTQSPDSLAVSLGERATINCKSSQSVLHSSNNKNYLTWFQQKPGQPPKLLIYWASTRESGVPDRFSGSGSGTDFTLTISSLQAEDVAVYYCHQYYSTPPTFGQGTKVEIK
notes: One scFv chain
B4: MHGB738 v-region as scFv (E. coli supernatant) (scFv, V domains shown)
VH: QVQLQQSGPGLVKPSQTLSLTCAISGDSVSSNRAAWNWIRQSPSRGLEWLGRTYYRSKWYNDYAVSVKSRITINPDTSKNQISLQLNSVTPEDTAVYYCARVRPGIPFDYWGQGTPVTVSS
VL: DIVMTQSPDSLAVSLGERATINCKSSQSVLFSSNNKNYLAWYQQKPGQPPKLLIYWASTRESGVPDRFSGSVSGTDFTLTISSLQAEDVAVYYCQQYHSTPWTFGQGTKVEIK
notes: One scFv chain; also called MHGB738 (GL optimized B688)
B5: DL3B587 (bispecific antibody, human IgG1, kappa, L234A L235A)
scFv: DIQMTQSPSSLSASVGDRVTITCRASQGISNYLAWFQQKPGKAPKSLIYAASSLQSGVPSKFSGSGSGTDFTLTISSLQPEDFATYYCQQYNSYPYTFAQGTKLEIKGGSEGKSSGSGSESKSTGGSQVQLVQSGAEVKKPGASVKVSCKASGNTFTNYYIHWVRQAPGQGLEWMGIINPSGGSTSYAQKLQGRMTMTRDTSTSTVYMELSSLRSEDTAVYFCARQGPFIGDAFDIWGQGTMVTVSSEPKSSDKTHTCPPCPAPEAAGGPSVFLFPPKPKDTLMISRTPEVTCVVVSVSHEDPEVKFNWYVDGVEVHNAKTKPREEQYNSTYRVVSVLTVLHQDWLNGKEYKCKVSNKALPAPIEKTISKAKGQPREPQVYVLPPSREEMTKNQVSLLCLVKGFYPSDIAVEWESNGQPENNYLTWPPVLDSDGSFFLYSKLTVDKSRWQQGNVFSCSVMHEALHNHYTQKSLSLS
heavy: EVQLVESGGGLVKPGGSLRLSCAASGFTFSRYNMNWVRQAPGKGLEWVSSISTSSNYIYYADSVKGRFTFSRDNAKNSLDLQMSGLRAEDTAIYYCTRGWGPFDYWGQGTLVTVSSASTKGPSVFPLAPSSKSTSGGTAALGCLVKDYFPEPVTVSWNSGALTSGVHTFPAVLQSSGLYSLSSVVTVPSSSLGTQTYICNVNHKPSNTKVDKKVEPKSCDKTHTCPPCPAPEAAGGPSVFLFPPKPKDTLMISRTPEVTCVVVSVSHEDPEVKFNWYVDGVEVHNAKTKPREEQYNSTYRVVSVLTVLHQDWLNGKEYKCKVSNKALPAPIEKTISKAKGQPREPQVYVYPPSREEMTKNQVSLTCLVKGFYPSDIAVEWESNGQPENNYKTTPPVLDSDGSFALVSKLTVDKSRWQQGNVFSCSVMHEALHNHYTQKSLSLSPG
light: DIQMTQSPSSLSASVGDRVTITCRARQSIGTAIHWYQQKPGKAPKLLIKYASESISGVPSRFSGSGSGTDFTLTISSLQPEDFATYYCQQSGSWPYTFGQGTKLEIKRTVAAPSVFIFPPSDEQLKSGTASVVCLLNNFYPREAKVQWKVDNALQSGNSQESVTEQDSKDSTYSLSSTLTLSKADYEKHKVYACEVTHQGLSSPVTKSFNRGEC
notes: also called CD3W245-Fab; DL3B279-LH-scFv
B6: DL3B583 (bispecific antibody)
heavy: QVQLVQSGAEVKKPGASVKVSCKASGNTFTNYYIHWVRQAPGQGLEWMGIINPSGGSTSYAQKLQGRMTMTRDTSTSTVYMELSSLRSEDTAVYFCARQGPFIGDAFDIWGQGTMVTVSSASTKGPSVFPLAPSSKSTSGGTAALGCLVKDYFPEPVTVSWNSGALTSGVHTFPAVLQSSGLYSLSSVVTVPSSSLGTQTYICNVNHKPSNTKVDKKVEPKSCDKTHTCPPCPAPEAAGGPSVFLFPPKPKDTLMISRTPEVTCVVVSVSHEDPEVKFNWYVDGVEVHNAKTKPREEQYNSTYRVVSVLTVLHQDWLNGKEYKCKVSNKALPAPIEKTISKAKGQPREPQVYVLPPSREEMTKNQVSLLCLVKGFYPSDIAVEWESNGQPENNYLTWPPVLDSDGSFFLYSKLTVDKSRWQQGNVFSCSVMHEALHNHYTQKSLSLSPG
light: DIQMTQSPSSLSASVGDRVTITCRASQGISNYLAWFQQKPGKAPKSLIYAASSLQSGVPSKFSGSGSGTDFTLTISSLQPEDFATYYCQQYNSYPYTFAQGTKLEIKRTVAAPSVFIFPPSDEQLKSGTASVVCLLNNFYPREAKVQWKVDNALQSGNSQESVTEQDSKDSTYSLSSTLTLSKADYEKHKVYACEVTHQGLSSPVTKSFNRGEC
scFv: EVQLVESGGGLVKPGGSLRLSCAASGFTFSRYNMNWVRQAPGKGLEWVSSISTSSNYIYYADSVKGRFTFSRDNAKNSLDLQMSGLRAEDTAIYYCTRGWGPFDYWGQGTLVTVSSGGSEGKSSGSGSESKSTGGSDIQMTQSPSSLSASVGDRVTITCRARQSIGTAIHWYQQKPGKAPKLLIKYASESISGVPSRFSGSGSGTDFTLTISSLQPEDFATYYCQQSGSWPYTFGQGTKLEIKEPKSSDKTHTCPPCPAPEAAGGPSVFLFPPKPKDTLMISRTPEVTCVVVSVSHEDPEVKFNWYVDGVEVHNAKTKPREEQYNSTYRVVSVLTVLHQDWLNGKEYKCKVSNKALPAPIEKTISKAKGQPREPQVYVYPPSREEMTKNQVSLTCLVKGFYPSDIAVEWESNGQPENNYKTTPPVLDSDGSFALVSKLTVDKSRWQQGNVFSCSVMHEALHNHYTQKSLSLSPG
notes: also called CD3W245-HL-scFv; DL3B279-Fab

molecular target: recombinant HLA-G (human); test: ELISA, scFv in E. coli supernatant on recombinant HLA-G

Room temperature binding signal	Binder
3.07e+06	B1
2.75e+06	B2
1.52e+07	B3
5.76e+06	B4

molecular target: T1, DLL3 on tumor cells (SHP-77, HCC1833, G361) (human, UniProt Q9NYJ7 27-618); test: cell-based or functional assay
T1 sequence: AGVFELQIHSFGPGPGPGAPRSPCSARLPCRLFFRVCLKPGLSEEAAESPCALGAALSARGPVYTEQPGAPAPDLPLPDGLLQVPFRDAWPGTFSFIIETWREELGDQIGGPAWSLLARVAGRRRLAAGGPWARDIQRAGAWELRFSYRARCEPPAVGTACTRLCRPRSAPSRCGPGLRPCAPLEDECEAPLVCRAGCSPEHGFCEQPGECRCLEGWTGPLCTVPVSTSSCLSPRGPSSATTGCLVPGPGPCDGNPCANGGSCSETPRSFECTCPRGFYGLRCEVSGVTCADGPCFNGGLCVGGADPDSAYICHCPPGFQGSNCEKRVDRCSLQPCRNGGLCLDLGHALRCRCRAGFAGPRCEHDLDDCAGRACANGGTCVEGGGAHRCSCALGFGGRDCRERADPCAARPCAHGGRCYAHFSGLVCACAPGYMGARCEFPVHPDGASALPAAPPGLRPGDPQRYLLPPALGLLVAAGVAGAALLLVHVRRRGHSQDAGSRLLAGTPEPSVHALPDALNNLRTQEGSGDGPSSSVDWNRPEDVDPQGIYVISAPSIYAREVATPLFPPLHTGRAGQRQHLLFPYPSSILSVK

Binder	Cytotoxicity, % lysis of SHP-77 cells (whole PBMCs, 1:1 ET, 30 nM) [%]
B5	83.3
B6	99.8

molecular target: recombinant HLA-G (human); test: ELISA after 10 min heat treatment of the scFv supernatant

% Binding retained 55° C. [%]	% Binding retained 60° C. [%]	% Binding retained 65° C. [%]	Binder
85	9	4	B1
84	80	48	B2
103	122	11	B3
14	2	1	B4

molecular target: T2, recombinant human DLL3 (human, UniProt Q9NYJ7 27-492); test: SPR (Biacore T200), antibody captured by goat anti-Fc, DLL3 titrated
T2 construct: also called DLL3 antigen; Delta-like protein 3
T2 sequence: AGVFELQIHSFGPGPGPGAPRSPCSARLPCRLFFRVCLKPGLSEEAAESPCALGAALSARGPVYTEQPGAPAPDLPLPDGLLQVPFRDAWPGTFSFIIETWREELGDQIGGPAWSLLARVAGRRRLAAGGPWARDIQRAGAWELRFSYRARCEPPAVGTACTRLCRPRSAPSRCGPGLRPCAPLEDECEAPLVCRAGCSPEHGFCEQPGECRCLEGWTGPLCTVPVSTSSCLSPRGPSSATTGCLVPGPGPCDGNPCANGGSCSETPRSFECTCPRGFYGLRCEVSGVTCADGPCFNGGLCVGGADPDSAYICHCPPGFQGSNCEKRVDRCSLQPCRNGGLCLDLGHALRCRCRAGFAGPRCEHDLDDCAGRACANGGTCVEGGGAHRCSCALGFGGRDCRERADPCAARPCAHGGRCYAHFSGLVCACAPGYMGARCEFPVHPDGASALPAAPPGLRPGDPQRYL

Kd [nM]	Binder
0.031	B5
0.016	B6
